The text below walks through data of the nanobody polyreactivity screen of Harvey et al. (2022).

A short description of this data set: yeast display, Sf9 membrane polyspecificity reagent, FACS + sequencing; frameworks hold sequencing errors. The procedure, abridged:
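Polyreactivity labels are assigned by the sorting gate from which each nanobody was recovered. The gates were low and high (top ~1%), set on anti-HA fluorescence for expression and streptavidin fluorescence for reagent binding. Before sorting, galactose-induced (36–48 hours) yeast display cells were stained for 1 hour at 4 °C with 10% biotinylated, detergent-solubilized Sf9 membrane reagent.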
For the sequence “QVQLVESGGGLVQAGGSLRLSCAASGFTFAPNAMGWYRQAPGKERELVAAISSASSTYYADSVKGRFTISRDNAKNTVYLQMNSLKPEETAVYYCAAKSSTKQRKYYWGQGTQVTVSS”, the “polyreactivity (PSR sort gate)” value is “high polyreactivity”.

For “QVQLVESGGGLVQAGGSLRLSCAASGFTFARYAMGWYRQAPGKERELVAAINWSGGRTYYADSVKGRFTISRDNAKNTVYLQMNSLKPEDTAVYYCNAWGLVYYSSGYDYWGQGTQVTVSS”, the “polyreactivity (PSR sort gate)” value is “high polyreactivity”.

Turning to “QVQLVESGGGLVQAGGSLRLSCAASGFTFARYAMGWYRQAPGKERELVAAISRGTTTYYADSVKGRFTISRDNAKNTVYLQMNILKPDDTAVYYCAAVTTRTYPGRYYYWGQGTQVTVSS”, the “polyreactivity (PSR sort gate)” value is “high polyreactivity”.

Regarding “QVQLVESGGGLVQAGGSLRLSCAASGFTFASNAMGWYRPAPWKERELVAGISRTGTTTYYADSVKGRFTISRDNAKNTVYLQMNSLKPEDTAVYYCAASKQAVKYRSQRYYYWGQGTQVTVSS”, the “polyreactivity (PSR sort gate)” value is listed as “high polyreactivity”.

As for “QVQLVESGGGLVQAGGSLRLSCAASGFTFASNVMGWYRQAPGKERELVAAITSGASTNYADSVKGRFTISRDNAKNTVYLQMNSLKPEDTAVYYCAAGRQWYVFYEFDYWGQGTQVTVSS”, the “polyreactivity (PSR sort gate)” value was “high polyreactivity”.

Take “QVQLVESGGGLVQAGGSLRLSCAASGFTFATYAMGWYRQAPGKERELVAAITYRGGRTYYADSVKGRFTISRDNAKNTVYLQMNSLKPEDTAVYYCNTVYPRRLIFGYWGQGTQVTVSS”: the “polyreactivity (PSR sort gate)” value was “high polyreactivity”.

With “QVQLVESGGGLVQAGGSLRLSCAASGFTFAVYAMGWYRQAPGKEREFVADITYDGGSTYYADSVKGRFTISRDNAKNTVYLQMNSLKPEDTAVYYGAAERLGAFQTPSNVSKYYYWGQGSQVTVSS”, the “polyreactivity (PSR sort gate)” value is given as “low polyreactivity”.

“QVQLVESGGGLVQAGGSLRLSCAASGFTFAVYAMGWYRQAPGKERELGAAISRSGTRTYYADSVKGRFTFSRDNAKNTVYLQMNSLKPEDTAVYYCATVVILIYDYWGQGTQVSVSS”: the “polyreactivity (PSR sort gate)” value is “low polyreactivity”.

In the case of “QVQLVESGGGLVQAGGSLRLSCAASGFTFAVYVMGWYRQAPGKERELVATISFSVGSTYYADSVKGRFTISGDNAKNTVYLQMNRLKPEDTAVYYCNADPPPEYYPDKDNYWGQGTQVTVSS”, the “polyreactivity (PSR sort gate)” value is given as “low polyreactivity”.

Regarding “QVQLVESGGGLVQAGGSLRLSCAASGFTFAWYAMGWYRPAPGKERELVAAISGSGGRTYYADSVKGRFTISRDNAKNTVYLQMNSLKPEDTAVYYFNTDRYWGKGDYWGQGTLVTVSS”, the “polyreactivity (PSR sort gate)” value is on record as “high polyreactivity”.

As to “QVQLVESGGGLVQAGGSLRLSCAASGFTFAYNAMGWYRPAPGKERELVAAITTRTGTTYYADSVKGRFTISRDNAKNTVYLQMNSLKPEDTAVYYCAKRGYYRYYYWGQGTLVTVSS”, the “polyreactivity (PSR sort gate)” value is “high polyreactivity”.

On to “QVQLVESGGGLVQAGGSLRLSCAASGFTFAYNAMGWYRQAPGKEREFVAAITSSGGSTYYADSVKGRFTISRDYAKNTVYLQMNSLKPEHTAVYYCNAYYTFPRYQYGYWGQGTQVTVSS”, for which the “polyreactivity (PSR sort gate)” value is given as “high polyreactivity”.

For the sequence “QVQLVESGGGLVQAGGSLRLSCAASGFTFAYYAMGWYRQAPGKERELVAAISERGGSTYYADSVKGRFTISRDNAKNTVYLQMNSLKPEDTAVYYCARTFWDYPWYQSSYYSWGQGTQVTVSS”, the “polyreactivity (PSR sort gate)” value was “low polyreactivity”.

In the case of “QVQLVESGGGLVQAGGSLRLSCAASGFTFAYYAMGWYRQAPGKERELVAAISSGGGSTYYADSVKGRFTISRDNAKNTVYLQMNSLKPEDTAVYYCATTIQISYDSIWYDYWGQGTQVTVSS”, the “polyreactivity (PSR sort gate)” value is “high polyreactivity”.

For the sequence “QVQLVESGGGLVQAGGSLRLSCAASGFTFDANAMGWYRQAPGKERELVAAITRFGSTFYADSVKGRFTISRDNAKNTVYLQMNSLKPEDTAVYYCNAARDHVSGYDYWGQGTQVTVSS”, the “polyreactivity (PSR sort gate)” value is reported as “low polyreactivity”.

On to “QVQLVESGGGLVQAGGSLRLSCAASGFTFDAYDMGWYRQAPGKERELVAAISWRGIDTTYADSVKGRFTISRDNAKNTVYLQMNSLKPEDTAVYYCAEFVSDATVGPSKGLDYWGQGTQVTVSS”, for which the “polyreactivity (PSR sort gate)” value was “low polyreactivity”.
